Biological target: T1, MPND 54-163 (RAMA domain, crystal) (Mus musculus, UniProt Q3TV65 54-163)
T1 sequence: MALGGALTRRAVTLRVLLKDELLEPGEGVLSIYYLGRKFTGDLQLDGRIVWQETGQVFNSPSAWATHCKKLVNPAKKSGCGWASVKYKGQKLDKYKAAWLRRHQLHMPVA
Experiment: X-ray crystallography (2.47 A); EMSA: 20 mM HEPES pH 7.2, 100 mM NaCl, 2 mM DTT, 0.1% NP-40, 20 uM protein, 5 uM DNA, on ice; MST: 20 mM HEPES pH 7.2, 100 mM NaCl, 0.1% NP-40, 22 C; pull-down: 20 mM HEPES pH 7.2, 0.15 M NaCl, 1 mM DTT, 4 C
Details: protein: recombinant; tags: tag removed with TEV; 18 bp, 5' overhangs 1 nt

B1: crystallization dsDNA (dsDNA)
DNA 1: CAGCAACAGAAGAGGATCT
DNA 2: GAGATCCTCTTCTGTTGCT
B1: binds.

Reference: publication PMC9963953, “Structures of MPND Reveal the Molecular Recognition of Nucleosomes”
